According to patent US20230270119A1, “BIOSTIMULANT AND BIOPROTECTIVE PEPTIDES AND THEIR USE IN AGRICULTURE” (priority 2020, published 2023):

B1: PS1-70: recombinant peptide contained in the amino-terminal region of the Prosystemin polypeptide, free of Systemin; expressed in E. coli (protein)
chain: MGTPSYDIKNKGDDMQEEPKVKLHHEKGGDEKEKIIEKETPSQDINNKDTISSYVLRDDTQEIPKMEHEE
modifications: Peptide PS1-70
notes: recombinant peptide contained in the amino-terminal region of the Prosystemin polypeptide, free of Systemin; expressed in E. coli
B2: PS1-120: recombinant peptide contained in the amino-terminal region of the Prosystemin polypeptide, free of Systemin; expressed in E. coli (protein)
chain: MGTPSYDIKNKGDDMQEEPKVKLHHEKGGDEKEKIIEKETPSQDINNKDTISSYVLRDDTQEIPKMEHEEGGYVKEKIVEKETISQYIIKIEGDDDAQEKLKVEYEEEEYEKEKIVEKET
modifications: Peptide PS1-120
notes: as for B1

Tests used:
[1] = test system: Spodoptera littoralis larvae; test: Bioassay on Spodoptera littoralis larvae fed with peptide-treated tomato leaves; format: in vivo
Method: Briefly, S. littoralis larvae were grown in a climate chamber at 25° C., 70% relative humidity (RH), with a 16-hour light and 8-hour dark photoperiod and fed with an artificial diet until completion of the first moult. For the bioassays, 150 larvae for each thesis were grown on tomato leaves for the entire duration of the second instar to adapt them to the different diet. The newly moulted third-instar larvae up to the moult stage were fed with plants on which a composition comprising peptides PS1-70 and PS1-120 had been applied at 100 pM and 100 fM concentrations in 1×PBS buffer. Larvae fed with plants treated with 1×PBS buffer only were used as a control. Bioassays were carried out under the same environmental conditions, in 32-well plastic trays containing 1.5% (w/v) agar and 0.005% (w/v) methyl parahydroxybenzoate, which are useful for creating a humid environment for maintaining cell turgor of tomato leaves. Each experimental group consisted of 32 larvae. The survival of the larvae was monitored daily, and their weight every other day. […] A significant decrease in the survival of larvae fed with leaves of plants treated with the peptides of the invention compared to those fed with leaves of the control plants was also observed for both assays (FIGS. 10B and 10D). […] The same assay scheme was carried out by the present inventors by feeding S. littoralis larvae with leaves treated with the peptide PS1-70 and with peptides having the sequences SEQ ID NO. 3, 5, and 8 at femtomolar concentration. […] A significant decrease was also observed in the survival of larvae fed with peptide-treated leaves compared to those fed with the control leaves (FIG. 11B). […] 8, SEQ ID NO. 3, and SEQ ID NO. 5 (FIG. 11B).

Botrytis cinerea [2] = test: Botrytis cinerea necrosis areas on treated eggplant leaves; format: in vivo, Botrytis cinerea on Solanum melongena; conditions: day 8, control 11 mm^2 (FIG. 12C)
Description: (§1) The present inventors also carried out tests aimed at determining the effects of exogenous application of the peptides of the invention, at picomolar and femtomolar concentrations, against the development of the necrotrophic fungus on Solanum melongena (eggplant) plants (FIG. 12C) and Vitis vinifera (vine) plants (FIG. 12D). […] The positive effect of the treatment was statistically significant from day 3 of inoculation of the pathogen to day 8 where values of 11 mm^2 were reached on the control leaves, unlike the treated leaves where values of 8.4 and 6.0 mm^2 were recorded on leaves treated with the peptides PS1-70 and PS1-120 at a concentration of 100 pM, and values of 6.2 and 4.10 mm^2 were recorded on leaves treated with said peptides at a concentration of 100 fM (FIG. 12C). Similar results were obtained on vine plants (FIG. 12D). The positive effect of the treatment was already statistically significant from day 1 of inoculation of the pathogen to day 8 where values of 43 mm^2 were reached on the control leaves, and values of 16.7 and 13.6 mm^2, respectively, were reached on leaves treated with the peptides PS1-70 and PS1-120 at a concentration of 100 pM, and values of 12 and 11.8 mm^2 were reached on leaves treated with said peptides at a concentration of 100 fM (FIG. 12D). Similar results were obtained on olive trees.

Botrytis cinerea [3] = test: Botrytis cinerea necrosis areas on treated vine leaves; format: in vivo, Botrytis cinerea on Vitis vinifera; conditions: day 8, control 43 mm^2 (FIG. 12D)
Description: as §1

B. cinerea [4] = test: Seed treatment: B. cinerea necrosis areas on leaves of plants born from treated tomato seeds; format: in vivo, Botrytis cinerea on tomato; conditions: leaves of 4-week-old plants born from seeds treated at 100 fM; day 8; control 11 mm^2 (FIG. 16)
Method: The mean necrosis areas were measured 1, 3 and 5 days after inoculation of the pathogen. The letters a, b indicate the statistical significance of the data (ANOVA), each letter representing a statistical group. The present inventors also assessed the protective effect conferred by the treatment with the peptides object of the invention directly on the seed. Tomato seeds were treated with a composition comprising the peptides at a concentration of 100 fM or with 1×PBS for the controls, allowed to dry and germinated in the dark on sterile adsorbent paper at 24° C. 4-week-old plant leaves were detached from the plant and inoculated with 10 μl of spore solution in the internerve spaces and near the previously marked points.

S. littoralis larvae = test system: S. littoralis larvae; parameters: species or system Spodoptera littoralis; conditions: in vivo, po
B. cinerea [5] = format: cell-based, Botrytis cinerea
Method: 3, 5 and 8, and Trichoderma T22, (C) PS1-70 and PS1-120. The growth of the fungus was measured 24 hours after the addition of the peptides of the invention as the turbidity level of the medium (absorbance at 600 nm). The letters a, b indicate the statistical significance of the data (ANOVA), each letter representing a statistical group. Furthermore, as shown in FIGS. 22A and 22B, the growth of the B. cinerea fungus was not disrupted when the growth medium was added with the peptides PS1-70 and PS1-120 of the invention.

CAT2, SAM and APX2 genes = test: Salt stress gene expression in tomato plants irrigated with 100 fM peptides; format: in vivo; conditions: femtomolar; for activation of salt stress-responsive genes: 8 days after irrigation, 0 mM NaCl (FIG. 18A1, B1, C1); for tolerance to salt / induction of responsive genes: irrigated 7 days with 150 mM NaCl (FIG. 18A2, B2, C2)
Method: The analysis was carried out on the CAT2(A), SAM (B) and APX2 (C) genes. The asterisks indicate the statistical significance of the data by Student's t-test (*p<0.05; **p<0.01; ***p<0.001). […] An experiment was also set up to verify the efficiency of the peptides PS1-70, PS1-120 and SEQ ID NO.5, when administered at femtomolar concentrations, in promoting tolerance to a high salt stress condition.

[6] = Biometric parameters of tomato plants irrigated with peptides; format: in vivo; conditions: 100 fM; for root surface (root area): 14 days of salt stress 150 mM, 15 days after irrigation (FIG. 20A); for growth (fresh weight) of the aerial part: absence of salt (FIG. 20B)
Method: FIG. 20 illustrates the effect of irrigation treatment with the peptides PS1-70, PS1-120 and SEQ ID NO.5 at a concentration of 100 fM on the biometric parameters of the tomato plant. […] The asterisks indicate the statistical significance of the data by Student's t-test (*p<0.05). A few biometric parameters are shown in FIG. 20, measured after 14 days of continuous salt stress (150 mM) and 15 days after irrigation with the peptides PS1-70, PS1-120 and SEQ ID NO.5 at 100 fM concentrations, and the respective controls.

[7] = day 13, leaves treated at 100 fM, control 44 mg (FIG. 10C)
[8] = day 15, 100 pM, control 96.87% (FIG. 10B)
[9] = day 15, leaves treated at 100 pM, control 38 mg (FIG. 10A)

| Molecule | survival rate of larvae ([1]; day 13, 100 fM, control 100% (FIG. 10D)) [%] | average weight of larvae ([1]; day 13, femtomolar concentration, control 59 mg (FIG. 11A)) [mg] | survival rate of larvae ([1]; day 13, femtomolar concentration, control 100% (FIG. 11B)) [%] | average weight of larvae [1, 7] [mg] | survival rate of larvae [1, 8] [%] | average weight of larvae [1, 9] [mg] | necrosis areas (Botrytis cinerea [2]; 100 pM) [mm^2] | necrosis areas (Botrytis cinerea [2]; 100 fM) [mm^2] | necrosis areas (Botrytis cinerea [3]; 100 pM) [mm^2] | necrosis areas (Botrytis cinerea [3]; 100 fM) [mm^2] | necrosis areas (B. cinerea [4]) [mm^2] | direct toxic effect on survival and development of larvae (S. littoralis larvae) | growth of the B. cinerea fungus (B. cinerea [5]) | activation of salt stress-responsive genes (CAT2, SAM and APX2 genes) | tolerance to salt / induction of responsive genes (CAT2, SAM and APX2 genes) | root surface (root area) [6] | growth (fresh weight) of the aerial part [6] |
| --- | --- | --- | --- | --- | --- | --- | --- | --- | --- | --- | --- | --- | --- | --- | --- | --- | --- |
| B1 | 0 | 22 | 31.25 | 11 | 34.37 | 15 | 8.4 | 6.2 | 16.7 | 12 | 7.1 | no effect on their survival and development | not disrupted | able to activate a series of salt stress-responsive genes | more salt-tolerant than the untreated control plants | greater root surface | able to promote the growth of the aerial part of the plant |
| B2 |  |  |  | 12 | 31.25 | 20 | 6.0 | 4.10 | 13.6 | 11.8 | 7.4 | no effect on their survival and development | not disrupted | able to activate a series of salt stress-responsive genes | more salt-tolerant than the untreated control plants | greater root surface | able to promote the growth of the aerial part of the plant |
